Test system: fragments of sample DNA (genomic DNA of TA100 strain)
Experiment: Error reduction by single-strand-specific nuclease treatment of DNA fragments (DMSO-exposed library)
Assay type: biochemical, Salmonella typhimurium
Description: From DNA derived from the DMSO-exposed cells or the 3-MC-exposed cells, a plurality of samples each of which was to give 60 ng or 100 ng of DNA were prepared, and the samples were each fragmented into pieces having a length of approximately 350 bp on average by using a DNA Shearing System ME220. The fragments of each sample were divided into two groups. For the group without nuclease treatment (nontreatment group), the DNA fragments were suspended in Resuspension buffer attached to the TruSeq for End Repair in the subsequent step in accordance with the recommended protocol to afford 60 μL of eluate. For the group with nuclease treatment (treatment group), the DNA fragments were purified through steps of adsorbing on Sample Purification Beads attached to the TruSeq (hereinafter, also expressed as beads, simply), washing twice with 80% ethanol water, and drying in accordance with the recommended protocol. In the subsequent elution operation, the beads were suspended in distilled water (DW, produced by NIPPON GENE CO., LTD.) to afford 30 μL of DNA eluate containing DNA fragments.
S1 nuclease (Promega Corporation, catalog No.: M5761), Mung Bean Nuclease (MBN) (Takara Bio Inc., catalog No.: 2420A), or RecJf (New England Biolabs, catalog No.: M0264L) was used as the single-strand-specific nuclease. The activity values (numbers of units) of the enzymes were defined as follows. • S1 nuclease: an enzymatic activity such that 1 μg of acid-soluble substance is generated per minute at 37° C. in a mixed solution of 30 mM sodium acetate (pH 4.6, 25° C.), 50 mM NaCl, 1 mM ZnCl2, 5% glycerol, and 0.5 mg/mL denatured calf thymus DNA was defined as 1 U. • MBN: an enzymatic activity such that 1 μg of acid-soluble decomposition product is generated per minute at 37° C. and pH 5.0 with thermally denatured calf thymus DNA as a substrate was defined as 1 U. • RecJf: an amount of the enzyme necessary for generating 0.5 ng of deoxyribonucleotide soluble in trichloroacetic acid per minute at 37° C. in 50 μL of whole reaction solution (containing 1×NE Buffer 2 and 1.5 μg of sonicated [^3H]-labeled single-stranded E. coli DNA) was defined as 1 U.
To the DNA eluate obtained in I), 4 μL of 10× Reaction Buffer attached to the S1 nuclease was added. The S1 nuclease was appropriately diluted with 1× Reaction Buffer, 1, 3, 10, 30, 100, or 300 U thereof was added to the DNA eluate, and DW was added thereto to a total volume of 40 μL. For the sample to which 1000 U of the S1 nuclease was to be added, 4.6 μL of 10× Reaction Buffer was added to 30 μL of the DNA eluate obtained by beads purification, and 12 μL of the stock solution of the S1 nuclease was added thereto to a total volume of 46 μL. Each reaction solution with the S1 nuclease was incubated at 30° C. for 30 minutes. Assuming that the whole amount of DNA (60 ng) present at the beginning of library preparation existed in each reaction solution, the numbers of units of the S1 nuclease per 1 ng of DNA were 0.02, 0.05, 0.17, 0.50, 1.67, 5.00, and 16.7 U/ng. For inactivation of the S1 nuclease in each reaction solution, 3 μL of 0.5 M EDTA (pH 8.0) (produced by NIPPON GENE CO., LTD.) was added, and the resultant was incubated at 70° C. for 10 minutes. To purify DNA from the inactivated reaction solution, beads attached to the TruSeq in an amount equal to that of the reaction solution were added and a purification operation was carried out in accordance with the recommended protocol, and the resultant was suspended in Resuspension buffer attached to the TruSeq to afford 60 μL of eluate (S1 nuclease treatment group). […]
To the DNA eluate obtained in I), 5 μL of 10×NE Buffer 2 attached to the RecJf was added. The RecJf was appropriately diluted with 1×NE Buffer 2, and 3, 10, 30, or 100 units thereof was added to the DNA eluate to a total volume of 50 μL. Each reaction solution with the RecJf was stirred, and incubated at 37° C. for 60 minutes. […]

B1: S1 nuclease: single-strand-specific endonuclease (Promega Corporation, catalog No.: M5761) (protein, UniProt P24021 21-287, looked up)
Nuclease S1: WGNLGHETVAYIAQSFVASSTESFCQNILGDDSTSYLANVATWADTYKYTDAGEFSKPYHFIDAQDNPPQSCGVDYDRDCGSAGCSISAIQNYTNILLESPNGSEALNALKFVVHIIGDIHQPLHDENLEAGGNGIDVTYDGETTNLHHIWDTNMPEEAAGGYSLSVAKTYADLLTERIKTGTYSSKKDSWTDGIDIKDPVSTSMIWAADANTYVCSTVLDDGLAYINSTDLSGEYYDKSQPVFEELIAKAGYRLAAWLDLIASQPS
Error reduction rate, GC to CG (S1 nuclease 0.02 U/ng): 30.4% | Error reduction rate, GC to TA (S1 nuclease 0.02 U/ng DNA in reaction solution): 52.8% | Error reduction rate, GC to CG (S1 nuclease 0.05 U/ng): 50.6% | Error reduction rate, GC to TA (S1 nuclease 0.05 U/ng): 35.3% | Error reduction rate, GC to CG (S1 nuclease 0.17 U/ng): 84.9% | Error reduction rate, GC to TA (S1 nuclease 0.17 U/ng): 83.1% | Error reduction rate, GC to CG (S1 nuclease 0.50 U/ng): 87.5% | Error reduction rate, GC to TA (S1 nuclease 0.50 U/ng): 69.9% | Error reduction rate, GC to CG (S1 nuclease 1.67 U/ng): 86.0% | Error reduction rate, GC to TA (S1 nuclease 1.67 U/ng): 81.7% | Error reduction rate, GC to CG (S1 nuclease 5.00 U/ng): 98.3% | Error reduction rate, GC to TA (S1 nuclease 5.00 U/ng): 84.5% | Error reduction rate, GC to CG (S1 nuclease 16.7 U/ng): 98.1% | Error reduction rate, GC to TA (S1 nuclease 16.7 U/ng): 79.6%

Source: patent US20220396825A1, “METHOD FOR PREPARING […]” (KAO CORPORATION, priority 2019, published 2022)
